Measured values reported in patent US20210371527A1 (published 2021).
Like-named read-outs stand apart in the source and are kept apart here.

Key:
[1] = target: T1, human CD4 on HPB-ALL cells (UniProt P01730 26-458); assay: flow cytometry
[2] = target: T1, human CD4 on HPB-ALL cells; assay: flow cytometry; remark: listed apart in the source

EC50 [1] [nM]	EC50 [2] [nM]	Binder
3.05	–	deferoxamine conjugated humanized IAB41-1 minibody (other, deferoxamine (Df) chelator conjugated; sites of conjugation not stated) EIVLTQSPATLSLSPGERATLSCSARSSVSYLYWYQQKPGQAPRLLIYDTSNLASGIPDRFSGSGSGTDFTLTISRLEPEDAAVYYCQQWSDYPLTFGGGTKLEIKGSTSGGGSGGGSGGGGSSQVQLVQSGAEVKKPGASVKVSCKASGYSFANYWMHWVRQAPGQRLEWIGALYPGNVDTTYNQKFQGRVTITRDTSASTAYMELSSLRSEDTAVYYCTRMGTTLEAPLDYWGQGTLVTVSSEPKSSDKTHTCPPCPPCGGGSSGGGSGGQPREPQVYTLPPSREEMTKNQVSLTCLVKGFYPSDIAVEWESNGQPENNYKTTPPVLDSDGSFFLYSKLTVDKSRWQQGNVFSCSVMHEALHNHYTQKSLSLSPG
–	1.77	humanized IAB41-1 minibody (other) EIVLTQSPATLSLSPGERATLSCSARSSVSYLYWYQQKPGQAPRLLIYDTSNLASGIPDRFSGSGSGTDFTLTISRLEPEDAAVYYCQQWSDYPLTFGGGTKLEIKGSTSGGGSGGGSGGGGSSQVQLVQSGAEVKKPGASVKVSCKASGYSFANYWMHWVRQAPGQRLEWIGALYPGNVDTTYNQKFQGRVTITRDTSASTAYMELSSLRSEDTAVYYCTRMGTTLEAPLDYWGQGTLVTVSSEPKSSDKTHTCPPCPPCGGGSSGGGSGGQPREPQVYTLPPSREEMTKNQVSLTCLVKGFYPSDIAVEWESNGQPENNYKTTPPVLDSDGSFFLYSKLTVDKSRWQQGNVFSCSVMHEALHNHYTQKSLSLSPG
